Laboratory results: publication PMC3981948 (Mucosal immunology, 2013)

Columns and labels:
[1] = target: T1, purified wild type CEACAM5 (human, UniProt P06731-1 35-685); experiment: SPR
T1 sequence (looked up): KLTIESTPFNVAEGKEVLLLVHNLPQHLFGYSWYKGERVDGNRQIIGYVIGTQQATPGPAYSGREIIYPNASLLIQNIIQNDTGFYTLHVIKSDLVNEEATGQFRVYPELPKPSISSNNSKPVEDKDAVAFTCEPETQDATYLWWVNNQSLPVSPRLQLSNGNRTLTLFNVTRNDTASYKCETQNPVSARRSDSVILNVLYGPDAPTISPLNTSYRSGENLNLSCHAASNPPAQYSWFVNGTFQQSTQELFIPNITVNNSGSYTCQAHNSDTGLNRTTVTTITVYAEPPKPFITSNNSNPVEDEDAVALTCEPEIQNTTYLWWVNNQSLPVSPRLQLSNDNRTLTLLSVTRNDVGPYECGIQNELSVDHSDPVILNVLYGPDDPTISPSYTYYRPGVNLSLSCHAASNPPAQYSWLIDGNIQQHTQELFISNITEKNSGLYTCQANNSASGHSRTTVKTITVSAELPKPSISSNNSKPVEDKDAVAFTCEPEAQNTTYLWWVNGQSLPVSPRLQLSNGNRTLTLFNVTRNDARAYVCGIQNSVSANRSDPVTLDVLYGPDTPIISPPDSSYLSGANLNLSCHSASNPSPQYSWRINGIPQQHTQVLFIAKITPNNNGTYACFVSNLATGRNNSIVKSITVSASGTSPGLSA

[2] = target: T2, purified CEACAM5 mutant N70,81A (human, UniProt P06731-1 35-685, N70,81A | N70,81A); experiment: SPR
T2 sequence (looked up): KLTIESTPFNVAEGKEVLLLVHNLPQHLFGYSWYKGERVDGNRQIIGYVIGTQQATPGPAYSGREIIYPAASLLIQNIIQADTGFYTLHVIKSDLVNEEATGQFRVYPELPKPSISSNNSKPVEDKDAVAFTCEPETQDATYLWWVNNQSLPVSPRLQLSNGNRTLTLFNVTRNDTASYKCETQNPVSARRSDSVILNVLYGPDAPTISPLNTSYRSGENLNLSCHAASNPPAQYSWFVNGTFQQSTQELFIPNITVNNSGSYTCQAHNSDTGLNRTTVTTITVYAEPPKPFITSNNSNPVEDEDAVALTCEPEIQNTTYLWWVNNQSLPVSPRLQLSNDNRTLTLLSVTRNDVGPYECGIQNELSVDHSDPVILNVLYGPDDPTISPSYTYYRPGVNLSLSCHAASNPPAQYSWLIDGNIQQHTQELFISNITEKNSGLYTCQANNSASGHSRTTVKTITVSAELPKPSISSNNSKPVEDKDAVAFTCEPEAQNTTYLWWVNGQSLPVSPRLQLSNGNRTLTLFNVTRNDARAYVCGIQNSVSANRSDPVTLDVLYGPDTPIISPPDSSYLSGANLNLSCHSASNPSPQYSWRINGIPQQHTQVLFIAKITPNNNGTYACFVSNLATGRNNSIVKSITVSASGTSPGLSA

B1: purified extracellular domain of CD8α (domain or fragment)
chain: not shown
Kd [1]: 0.022 µM
koff [1]: 0.00056 s⁻¹
kon [1]: 26000 M⁻¹ s⁻¹
Kd [2]: 16 µM
koff [2]: 0.0047 s⁻¹
kon [2]: 290 M⁻¹ s⁻¹
